# Experimental data published in patent publication EP3222712A1, “ALCOHOL DEHYDROGENASE FROM PICHIA PASTORIS AND USE THEREOF” (priority 2016, dated 2017).
# Marks after values point to notes of the source that are not given here.
# Tests used:
# Test in all cases: kinetic parameters of purified PPADH by photometry
# Type in all cases: biochemical, Pichia pastoris GS 115
# [1] = molecular target: alcohol dehydrogenase from Pichia pastoris (PPADH) (Komagataella phaffii, UniProt C4R4L0)
# Protocol: (§1) In order to determine the kinetic parameters of the recombinant PPADH, purified enzyme was manufactured as described in example 4b). Afterwards the described test for reductive activity was used. All parameters such as 100 mM tris HCl buffer (pH 7), 0.2 mM NADPH, and 10 µl enzyme (purified PPADH) were kept constant, except that concentration of substrate and concentration of co-factor were varied. The kinetic parameters were calculated using the software GraphPad Prism5 based on a non-linear ,fitting"-algorithm. Table 4: kinetic parameters of purified PPADH regarding benzaldehyde, racemic CF3-ketone as substrates and the co-factor NADPH determined by photometry
# [2] = substrate: CC(=O)CC(O)(c1ccccc1)C(F)(F)F
# Protocol: as §1
# [3] = substrate: O=Cc1ccccc1; conditions: other: purified PPADH, tris HCl pH 7, non-linear fitting
# Protocol: as §1
# [4] = other: purified PPADH, tris HCl pH 7, non-linear fitting
Vmax ([1]; tris HCl pH 7),kcat ([1]; tris HCl pH 7),"Km ([1]; tris HCl pH 7, non-linear fitting)",Molecule,"Km ([2]; other: corrected for 50% (S)-enantiomer in the racemic substrate, pH 7.0)","Km [2, 4]","Vmax [2, 4]","kcat [2, 4]","kcat/Km [2, 4]",Km [3],Vmax [3],kcat [3],kcat/Km [3]
94.2 U/mg,19.5 s⁻¹,48.3 µM,NC(=O)C1=CN([C@@H]2O[C@H](COP(=O)(O)OP(=O)(O)OC[C@H]3O[C@@H](n4cnc5c(N)ncnc54)[C@H](OP(=O)(O)O)[C@@H]3O)[C@@H](O)[C@H]2O)C=CC1 [NADPH],,,,,,,,,
,,,alcohol dehydrogenase from Pichia pastoris (PPADH) (Komagataella phaffii GS115) (protein) MVSKVLLTGASGYIAQHITNELLSHGFKVIGTVRRQEQADQLHKQFSEESSVLQKDPSLLTYVLVPDIGASDAFDEVLKSTPDITYVLHTASPFIFNDDRALEDVYLKPAVEGTRNILSAIKKFANDSVKNVVVTSSFAAILNADKFEDKSFIHTEKVWNNNTWDQTKSGDRGVAYIVSKKEAEKAAWDFVEKEKPNFKLTTVNPPYVFGPQKFDASAKKESLNTSAEIVGSLLHTKYPSDDKLFDDPLNLSVDVRDVALYHVLPLLNADLASRRLLVVQSKFSAQRILNIINENFPELKGKIAVGKPEETARVEAIKGPEYNNSVTVGLTGVDPIPLEKTVVDSVKQILRANK,899 µM,1797.0* µM,46.3 U/mg,6.4 s⁻¹,3.6* s^-1mM^-1,3034.0 µM,98.5 U/mg,25.1 s⁻¹,8300 M⁻¹ s⁻¹
